The text below walks through data of patent US20140072558A1 (ANTIBODY AND RECEPTOR THERAPEUTICS, published 2014).

B4: DLK1-Fc fusion protein (Fc fusion)
chain: ECFPACNPQNGFCEDDNVCRCQPGWQGPLCDQCVTSPGCLHGLCGEPGQCICTDGWDGELCDRDVRACSSAPCANNGTCVSLDDGLYECSCAPGYSGKDCQKKDGPCVINGSPCQHGGTCVDDEGRASHASCLCPPGFSGNFCEIVANSCTPNPCENDGVCTDIGGDFRCRCPAGFIDKTCSRPVTNCASSPCQNGGTCLQHTQVSYECLCKPEFTGLTCVKKRALSPQQVTRLPSGYGLAYRLTPGVHELPVQQPEHRILKVSMKELNKKTPLLTEG
notes: Water-soluble DLK1 joined to a human antibody Fc region; also called DLK1-Fc-FITC; not shown: human antibody Fc region
B10: activin A (ligand, UniProt P08476 311-426, looked up)
chain: GLECDGKVNICCKKQFFVSFKDIGWNDWIIAPSGYHANYCEGECPSHIAGTSGSSLSFHSTVINHYRMRGHSPFANLKSCCVPTKLRPMSMLYYDDGQNIIKKDIQNMIVEECGCS
notes: also called ligand of ACVR2B

The target in test [1] is B4. The experiment in a line: scFv-phage ELISA; OD on DLK1 divided by OD on a-myc. For orientation: An ELISA detects its analyte on a solid surface through an enzyme-linked reagent.
The test “activin A” addresses B10. Nature of the test: ELISA: activin A coated 50 ng/ml. Here is the method: To examine whether water-soluble DLK1 competitively bind to the ACVR2B receptor with activin A, enzyme immunoassay was performed. 50 ng/ml of activin A was coated and reacted with ACVR2B-Fc and FLAG-DLK1, and then the binding was detected. Here, ACVR2B was fixed to a concentration of 2 nM, FLAG-DLK1 was treated to have a concentration of 1 to 16 nM, and then a degree of competitive binding was measured. As controls, Fc and ACVR1A-Fc not binding to activin A were used.

For test [2], the target named is T1, activin receptor type II B (ACVR2B) expressed in cells (UniProt Q13705 19-512, limits assumed).
T1 construct: whole, on cells; also called ACVR2B-overexpressed cell line
Nature of the test: flow cytometry, 1 ug DLK1-Fc-FITC on 293E cells. The method, then:
To confirm binding between water-soluble DLK1 and ACVR2B on actual cells, an experiment was performed using flow cytometry. The experiment was performed using CantoII (BD), and an experiment method was summarized as follows. […] The harvested cells were washed with cold DPBS twice, 1 μg of DLK1-Fc-FITC was added to react at 4° C. for 2 hours. DLK1-Fc-FITC used in the reaction was manufactured using a protein FITC labeling kit (Pierce). After the reaction, washing with 1% PBA (1% BSA in DPBS) buffer was performed, a degree of binding was determined by flow cytometry, and the results are shown in FIG. 15. In addition, the cells used above were subjected to western blotting to confirm the expression of ACVR2B (FIG. 14).
(In general: Flow cytometry measures light scatter and fluorescence of single cells or particles in a stream.)

A further test concerns the target BSA (UniProt P02769 25-607). The experiment in a line: ELISA: BSA coated as control for non-specific binding, ACVR2B-Fc serially diluted, anti-human IgG-HRP. Here is the method:
(§1) Binding between ACVR2B and water-soluble DLK1 was confirmed by enzyme immunoassay (ELISA). To this end, 1 μg/ml of FLAG-tagged water-soluble DLK1 was coated on an immunoplate (Nunc) at 4° C. for 16 hours. Here, as a control for detecting non-specific binding, BSA was used. The coated plate was washed with PBST (0.05% Tween 20) three times, and blocked with 5% skim milk PBST. ACVR2B-Fc prepared by attaching Fc to an extracellular part of ACVR2B was subjected to serial dilution, and reacted at room temperature for 1 hour. After the reaction, the cells were washed with PBST (0.05% Tween 20) three times, and […] (1:5000) was incubated for 1 hour to measure a binding degree. After the reaction, the cells were washed with PBST (0.05% Tween 20) three times, a color reaction was performed using TMB (Sigma), and 2.5 M H₂SO₄ was added to stop the reaction. And then optical density was measured at 450 nm.

Test [3] addresses T2, FLAG-tagged water-soluble DLK1 (Homo sapiens (Human), UniProt P80370 25-302).
T2 construct: also called FLAG-DLK1; not shown: FLAG tag
T2 sequence: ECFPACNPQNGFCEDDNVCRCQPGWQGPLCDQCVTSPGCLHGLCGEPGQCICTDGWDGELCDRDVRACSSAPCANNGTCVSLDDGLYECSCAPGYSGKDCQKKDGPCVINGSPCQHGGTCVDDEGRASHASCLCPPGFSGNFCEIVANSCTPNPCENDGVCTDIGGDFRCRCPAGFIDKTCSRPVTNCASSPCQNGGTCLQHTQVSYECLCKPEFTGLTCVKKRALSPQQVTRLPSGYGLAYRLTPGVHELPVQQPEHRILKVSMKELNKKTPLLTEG
Nature of the test: ELISA. The method, then: as §1

For test [4], the target named is B4. The experiment in a line: ELISA: activin A coated, DLK1-Fc added.

BSA, sequence (P02769 25-607 limits assumed): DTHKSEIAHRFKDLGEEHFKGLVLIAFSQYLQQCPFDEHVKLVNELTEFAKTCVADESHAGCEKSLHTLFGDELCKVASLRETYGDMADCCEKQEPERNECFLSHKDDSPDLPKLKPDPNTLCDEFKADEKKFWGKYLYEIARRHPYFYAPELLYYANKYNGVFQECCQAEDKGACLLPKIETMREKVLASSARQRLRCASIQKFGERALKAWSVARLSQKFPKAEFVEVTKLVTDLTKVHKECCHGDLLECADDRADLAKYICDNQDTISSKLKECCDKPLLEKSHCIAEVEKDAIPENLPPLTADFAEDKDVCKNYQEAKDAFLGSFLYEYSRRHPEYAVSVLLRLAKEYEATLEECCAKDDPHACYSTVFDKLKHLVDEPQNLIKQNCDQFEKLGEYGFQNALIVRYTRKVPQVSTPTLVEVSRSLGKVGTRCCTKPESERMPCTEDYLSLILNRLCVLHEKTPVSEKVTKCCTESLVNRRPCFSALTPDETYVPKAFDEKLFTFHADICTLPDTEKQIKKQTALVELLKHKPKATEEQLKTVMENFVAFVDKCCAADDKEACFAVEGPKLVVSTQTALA

B1: DLK1B09 (scFv, V domains shown)
VH: QMQLVESGGRLVRPGGSLRLSCAASGFPFTSYAMNWVRQTPGKGLEWVSTITATSGKTYYADSVKGRFTISRDNSRNTLFLQMNSLRAEDTAVYYCVRGESCSGGACSDFDYWGQGALVTVSS
VL: QLVLTQPASVSGSPGQSVTISCTGTSSDIGRYNRVSWYQHHPGKAPKLILNDVTTRPSGFSNRFSGSKSGNTASLTISGLQAEDEADYSCGSYAGSYTYVFGTGTKVTVL
notes: Monoclonal scFv on phage; VH3-23, V1-4; also called B09 (phage clone)
In the case of B1, the Ratio in the test with DLK1-Fc fusion protein [1] was determined as 25.3.

B2: ACVR1A-Fc (Fc fusion, UniProt Q04771 21-123, looked up)
chain: MEDEKPKVNPKLYMCVCEGLSCGNEDHCEGQQCFSSLSINDGFHVYQKGCFQVYEQGKMTCKTPPSPGQAVECCQGDWCNRNITAQLPTKGKSFPGTQNFHLE
notes: Control protein; not shown: Fc
Consider B2, for which the binding result with activin A is “no binding”.

B3: DLK1A04 (scFv, V domains shown)
VH: QVQLVESGAEVKKPGASVKVSCKASGYTFKDYAIHWVRQAPGQRLEWMGWINPGSGNTKYSHNFEGRVILTRDASANTAYLELPSLRSEDTAVYYCARSVSAYGSNYFDPWGQGTLITVSS
VL: DIQMTQSPSSLSASVGDRVTITCQASQDISNYLNWYQQKPGKAPKLLIYSTSNLQSGVPSRFSGSGSGTDFTLTISSLQPEDFATYYCQQLNSYPLTFGGGTKVDIK
notes: Monoclonal scFv on phage; VH1-3, L8
As to B3, the Ratio in the test with DLK1-Fc fusion protein [1] amounted to 6.15.

As to B4, the binding result in test [2] is “binds”.

B5: DLK1A10 (scFv, V domains shown)
VH: QVQLVESGGGLVQPGRSLRLSCAASGFTFDDYAMHWVRQAPGKGLEWVSGISWNSGSIGYADSVKGRFTISRDNAKNSLYLQMNSLRAEDTAVYYCARGPGLATGKGYADYWGQGTLVTVSS
VL: DIQMTQSPSSVSASVGDRVTITCRASQRISSWLAWYQQKPGRAPKLLIHSASTLHNGVPSRFSGSASGTDFTLTISSLQPEDYAIYYCQQGHSFPYTFGQGTKLEIK
notes: Monoclonal scFv on phage; VH3-9
For B5, the Ratio with DLK1-Fc fusion protein [1] was 2.21.

B6: DLK1H06 (scFv, V domains shown)
VH: QVQLVQSGGGLIQPGGSLRLSCAASGFTFSLYGMSWVRQAPGKGLEWVSSIPGSGTRTHYADSVKGRFTISRDNSKNTLFLQMNSLRAEDTAVYYCAKSTAYLFDYWGPGTLVTVSS
VL: DIQMTQSPATLSLSPGERATLSCRASQSIRHYLAWYQQKPGQAPRLLIHGASSRATGIPDRFSGSGSGTDFTLTISRLEPEDFAVYYCQHYGSPLHSFGPGTKVEIK
notes: Monoclonal scFv on phage; VH3-23, A27
On to B6, for which the Ratio with DLK1-Fc fusion protein [1] stood at 2.47.

B7: ACVR2B-Fc (Fc fusion, UniProt Q13705 19-137, looked up)
chain: SGRGEAETRECIYYNANWELERTNQSGLERCEGEQDKRLHCYASWRNSSGTIELVKKGCWLDDFNCYDRQECVATEENPQVYFCCCEGNFCNERFTHLPEAGGPEVTYEPPPTAPTLLT
notes: extracellular domain; Prepared by attaching Fc to an extracellular part of ACVR2B; not shown: Fc
B7: the binding result was “no binding” in the test with BSA and “binds” in test [3].

B8: DLK1A05 (scFv, V domains shown)
VH: QMQLVESGGGLVQPGRSLRLSCAASGFTFDEHAMHWVRQAPGKGLEWVSGINWNSGKTGYADSVKGRFTISRDNGKNSLYLQMNSLRAEDTAVYYCAKSGGYGGNTNWYFDLWGRGTLVTVSS
VL: QFVLTQPPSVSGAPGQNVTISCIGTSSNIGVGYDVHWYQQVPGTAPKLLVYGNNNRPSGVPDRFSGSKSGTSASLAITGLQAEDEADYYCQSYDSRLGVVFGGGTKLTVL
notes: Monoclonal scFv on phage; VH3-9, V1-13
As to B8, the Ratio with DLK1-Fc fusion protein [1] worked out at 3.81.

B9: DLK1H12 (scFv, V domains shown)
VH: QVQLVQSGGGLVKPGGSLRLSCAASEFTFSDYYMSWVRQAPGKGLEWLSYISGSGITTYYADSVKGRFTISRDNGKKSLYLEMNSLRAEDTAVYYCARLQGHCSGGACSNWFDAWGQGTLITVSS
VL: DIQMTQSPSSLSASVGDRLTITCRASQSILTYLNWYQQKPGKAPKLLIYAASSLQRGVPSRFSGSGSGTDFTLTISGLQPEDFATYYCQQGYGTPYTFGQGTKVDIK
notes: Monoclonal scFv on phage; VH3-11, O12
On to B9, for which the Ratio with DLK1-Fc fusion protein [1] came out at 4.75.

In the case of B10, the binding result with DLK1-Fc fusion protein [4] is given as “no binding”.
